Reference: article PMC3954597 (Biochemistry, 2014)
Square brackets hold non-standard residues; d marks the D form. pY = N[C@@H](Cc1ccc(OP(=O)(O)O)cc1)C(=O)O

T1: R24M PTP1B catalytic domain (amino acids 1-321) (human) (UniProt P18031)
T1 sequence: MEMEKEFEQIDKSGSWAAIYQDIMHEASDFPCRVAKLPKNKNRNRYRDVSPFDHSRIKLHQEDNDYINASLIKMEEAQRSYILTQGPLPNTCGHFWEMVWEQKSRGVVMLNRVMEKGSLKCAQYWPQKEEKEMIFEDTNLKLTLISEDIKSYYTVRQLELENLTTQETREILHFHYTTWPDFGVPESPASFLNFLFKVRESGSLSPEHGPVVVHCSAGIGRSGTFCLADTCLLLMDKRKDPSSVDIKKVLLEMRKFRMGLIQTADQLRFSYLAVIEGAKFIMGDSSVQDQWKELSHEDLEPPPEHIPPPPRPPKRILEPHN

T2: R47E PTP1B catalytic domain (amino acids 1-321) (human) (UniProt P18031)
T2 sequence: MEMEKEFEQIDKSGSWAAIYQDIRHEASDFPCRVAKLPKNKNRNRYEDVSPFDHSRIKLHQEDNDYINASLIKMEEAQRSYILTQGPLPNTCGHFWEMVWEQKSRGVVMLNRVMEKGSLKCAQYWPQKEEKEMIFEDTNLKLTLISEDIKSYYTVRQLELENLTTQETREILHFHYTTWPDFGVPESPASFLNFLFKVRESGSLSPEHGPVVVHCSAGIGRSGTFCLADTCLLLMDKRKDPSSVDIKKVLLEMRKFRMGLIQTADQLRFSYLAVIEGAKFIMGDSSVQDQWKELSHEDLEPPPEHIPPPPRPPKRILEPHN

T3: wild-type PTP1B catalytic domain (amino acids 1-321) (human) (UniProt P18031)
T3 sequence: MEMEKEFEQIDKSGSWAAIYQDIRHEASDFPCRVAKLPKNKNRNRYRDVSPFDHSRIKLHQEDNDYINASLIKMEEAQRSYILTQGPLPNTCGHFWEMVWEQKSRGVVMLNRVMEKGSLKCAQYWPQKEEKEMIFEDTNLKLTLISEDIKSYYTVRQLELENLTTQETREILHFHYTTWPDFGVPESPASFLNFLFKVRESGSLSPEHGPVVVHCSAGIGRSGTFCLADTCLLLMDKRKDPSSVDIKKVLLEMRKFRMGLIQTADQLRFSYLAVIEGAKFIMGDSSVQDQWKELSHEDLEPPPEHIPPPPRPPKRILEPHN


Columns and labels:
[1] = target: T1, R24M PTP1B catalytic domain (amino acids 1-321) (human)
[2] = target: T2, R47E PTP1B catalytic domain (amino acids 1-321) (human)
[3] = target: T3, wild-type PTP1B catalytic domain (amino acids 1-321) (human)

| Binder | KM, steady-state dephosphorylation of the pY peptide [1] [µM] | KM, steady-state dephosphorylation of the pY peptide [2] [µM] | KM, steady-state dephosphorylation of the pY peptide [3] [µM] |
| --- | --- | --- | --- |
| Ac-AA[pY]ADDAA-NH2 (SMILES CC(=O)N[C@@H](C)C(=O)N[C@@H](C)C(=O)N[C@@H](Cc1ccc(OP(=O)(O)O)cc1)C(=O)N[C@@H](C)C(=O)N[C@@H](CC(=O)O)C(=O)N[C@@H](CC(=O)O)C(=O)N[C@@H](C)C(=O)N[C@@H](C)C(N)=O) [Ac-AApYADDAA-NH2] | 6.4 | 12 | 2.2 |
| Ac-DPRGI[pY]DQVAG-NH2 (SMILES CC[C@H](C)[C@H](NC(=O)CNC(=O)[C@H](CCCNC(=N)N)NC(=O)[C@@H]1CCCN1C(=O)[C@H](CC(=O)O)NC(C)=O)C(=O)N[C@@H](Cc1ccc(OP(=O)(O)O)cc1)C(=O)N[C@@H](CC(=O)O)C(=O)N[C@@H](CCC(N)=O)C(=O)N[C@H](C(=O)N[C@@H](C)C(=O)NCC(N)=O)C(C)C) [nephrin pY1217 peptide Ac-DPRGIpYDQVAG-NH2] | 71 | 23 | 7.1 |
| Ac-AA[pY]AAADD-NH2 (SMILES CC(=O)N[C@@H](C)C(=O)N[C@@H](C)C(=O)N[C@@H](Cc1ccc(OP(=O)(O)O)cc1)C(=O)N[C@@H](C)C(=O)N[C@@H](C)C(=O)N[C@@H](C)C(=O)N[C@@H](CC(=O)O)C(=O)N[C@@H](CC(=O)O)C(N)=O) [Ac-AApYAAADD-NH2] | 8.7 | 10 | 3 |
| Ac-AA[pY]DDIDE-NH2 (SMILES CC[C@H](C)[C@H](NC(=O)[C@H](CC(=O)O)NC(=O)[C@H](CC(=O)O)NC(=O)[C@H](Cc1ccc(OP(=O)(O)O)cc1)NC(=O)[C@H](C)NC(=O)[C@H](C)NC(C)=O)C(=O)N[C@@H](CC(=O)O)C(=O)N[C@@H](CCC(=O)O)C(N)=O) [Ac-AApYDDIDE-NH2] | 37 | 56 | 3.5 |
| Ac-AA[pY]AADDA-NH2 (SMILES CC(=O)N[C@@H](C)C(=O)N[C@@H](C)C(=O)N[C@@H](Cc1ccc(OP(=O)(O)O)cc1)C(=O)N[C@@H](C)C(=O)N[C@@H](C)C(=O)N[C@@H](CC(=O)O)C(=O)N[C@@H](CC(=O)O)C(=O)N[C@@H](C)C(N)=O) [Ac-AApYAADDA-NH2] | 6.9 | 11 | 2.6 |
| Ac-EEDNAW[pY]AA-NH2 (SMILES CC(=O)N[C@@H](CCC(=O)O)C(=O)N[C@@H](CCC(=O)O)C(=O)N[C@@H](CC(=O)O)C(=O)N[C@@H](CC(N)=O)C(=O)N[C@@H](C)C(=O)N[C@@H](Cc1c[nH]c2ccccc12)C(=O)N[C@@H](Cc1ccc(OP(=O)(O)O)cc1)C(=O)N[C@@H](C)C(=O)N[C@@H](C)C(N)=O) [Ac-EEDNAWpYAA-NH2] | 1.9 | 9.5 | 1.3 |
